This note sets out measurements from US20260150817A1.

The IC50 is the concentration that gives 50% inhibition. Low readings indicate greater potency in that assay, high ones weaker potency in that assay.

This experiment concerns the target Spike protein of the COVID-19 Spike-ACE2 Binding Assay Kit (Raybiotech) (SARS-CoV-2) (UniProt P0DTC2).

“human SAT Nb-Fc control VH-Ab-8 (HAb8-S) (Fc fusion)” gave an IC50 of 0.079 nM.
